A short description of this data set: soluble fraction after stress (log2 fold change); higher = more stays soluble; pooled small domains, quantitative proteomics. The conditions noted are these: stress: 50 degC. The method in brief:
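The stress applied to every library was 50°C. These custom libraries of small protein domains were pooled and measured at high throughput with quantitative proteomics as the read-out. Aggregation propensity is expressed as the base-two logarithm of the fold change in how much of each protein remains soluble. The higher the value, the more of that protein stays in solution.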
As to “HMNKPLFVYPNPVHQGKINLSKATNFMVVDLLGQTVNKTNYGKDFSIDNLPNGVYFIKTTEGEIIKFMK”, the “soluble fraction (log2)” value was -0.696.

With “HMNKQEFLNTLRIIFKKANVLDVESIIDVYEEHFAVGYEKGLNDEQIIKSLGTPKEIYTSYVEAGI”, the “soluble fraction (log2)” value is -0.615.

“HMNKSGVVLIRVTVDASGRVTSAAYEPKGSTTSDVELVAEARKAALRTRFTESRTVIEGGVITYIFKL”: the “soluble fraction (log2)” value is -2.28.

Consider “HMNKSYTVPDVRGMTVEEAQEAEGVKDIFTVHVQGTRKTDEYQPGQIVEQDPIAGRTRKSNFVIEVYVAE”, for which the “soluble fraction (log2)” value is 0.0819.

Regarding “HMNKTQLQIEDEVLKPLIAEIFSKSKGRFGARKIRSKLMGLGYTASERRILRLMKELGLSSAG”, the “soluble fraction (log2)” value was -0.378.

As to “HMNKTVKIPNVSNLSREDAESVLKENGISVNSEVKQIESDTIEKGKVVKTDPSIGTSVKKGRSITIYVSSG”, the “soluble fraction (log2)” value came to 0.0637.

Take “HMNKWMQLASEEDKKLFNEAPKEIQDSITESAKFFDIRTKADVDTFWANTGLRQMKQQAMLNESFVNEY”: the “soluble fraction (log2)” value is -0.0275.

On to “HMNLDMVINKIGIVTEDIKQDKIGEVKVLGKRWSAYSNTELKKDEKVKILSIDGVKLKVEKI”, for which the “soluble fraction (log2)” value turned out to be 0.191.

On to “HMNLGAHVYWRNHRAYGDFREYEDVGGGREALALPGSTWGTKDPRVAQALFAARLTEFQEARVGR”, for which the “soluble fraction (log2)” value was -1.05.

On to “HMNLGVIYSLKAEVRSEPNTFSTRLFEVHEGLKVSINQLENDWVEIELLDGKTGWISNDQIRLI”, for which the “soluble fraction (log2)” value is -2.12.

Turning to “HMNLIFFSENLSTFRKEKGWTQSELAEKLGVKANTISNYEKGISTPDYKIIAKLRELFEMPTDVLLYSNLS”, the “soluble fraction (log2)” value is -1.39.

Regarding “HMNLLDYDFFEKMSSKEQEEIVEKVYIDFLNKSTGTNSPFYLKLFEKGKKSYIVNWLNENNF”, the “soluble fraction (log2)” value is -1.44.

As for “HMNLLSPREKQSLTLYASGLTLREVASELKLSPNSVGKFISRGKFKLNKSGAIVNSKTSIYLELKKRNLI”, the “soluble fraction (log2)” value was -0.111.

Regarding “HMNLNESVELGQELLSQALAQLGIRGELSPSTIDKLLAESSAKSMEELYADIGIGKRMPALVARHIFGLMD”, the “soluble fraction (log2)” value is -0.43.

Take “HMNLQAYQSVLDKLNEEYGTTFRFPTEEELHEVGLTNTVDPRTATVSATEFEKYMRPIAERISQANL”: the “soluble fraction (log2)” value is -0.00884.

In the case of “HMNLSAREWTSADGSRTFQGELTGFQDGKVKVRRSDGKSLVFAIELLSESDQQFIKTNQLVIAKKDED”, the “soluble fraction (log2)” value is 0.161.

As to “HMNLYHALDQQGEVYLTIPPRQSGRGKVTLMIDGRVREMDAMTDGDALKTGSKVRVTEILDENALKVEAM”, the “soluble fraction (log2)” value was found to be 0.207.

On to “HMNMAEETLDTAAKILKAAEEEFMEKGYGNAKMMSIAARAGVSHSMLHYYYRSKGKLFQMIFDEKA”, for which the “soluble fraction (log2)” value was -1.4.

Take “HMNMAEQGISLDSEAGKARFVSQALPLLKQLPDGVFKQRMLNQLADRVEVTADFIAQQLAQLKAA”: the “soluble fraction (log2)” value was -0.079.

In the case of “HMNMAVELEDGTQIFVFSEDGEFAGKRAVIADEEGRPTEENAPAGTHTLRDGRSIVVGEGGVIESVVET”, the “soluble fraction (log2)” value stood at 0.0438.

Regarding “HMNMEYQKAINHIVQMVKDGQLIVGSKIPSERDLSESLGIGRNSTREAISILRGMGLVESRHGSGNYIAKD”, the “soluble fraction (log2)” value is -0.148.

As to “HMNMGEKIRSLIGQFGVTSEDLKNLSVANLLIRMNQEAGDSKTKGILASLLETVNKAGVGNLTPDALGIK”, the “soluble fraction (log2)” value is -0.00161.

For “HMNMLGEQVRNIRKSRGFTLKALAEQTGLSIGYISQIERNLTDPSLSTLRKISAALDVPTYLFMG”, the “soluble fraction (log2)” value was -1.55.

On to “HMNMLGSNIKYLRNRHKLSQQELSEKLGVPRSSLSDYERGHTQVGLDSLIKLADIFDVKIDDLLRSNLSHR”, for which the “soluble fraction (log2)” value was -0.0552.

With “HMNMPHEIDANFISSLGRLIDNHGKNYGDFQIFREMFLDYFPRFDELSSNNKEKINRRLYKFFETLFG”, the “soluble fraction (log2)” value was -1.71.

Turning to “HMNMVEESVKKSSQWAVFEPNTISTWVKIQAMIENYLYQKWKEGALAGAKPEHAFFVKVGLGETM”, the “soluble fraction (log2)” value was determined as 0.163.

Take “HMNNEISINGNKIYFNKNISKVFIYDISGKLIKHKNNFNNNFIDLSEFNSAFYIIKALDINENYTTKKIFL”: the “soluble fraction (log2)” value is -1.58.

Consider “HMNNFTPEHLEKDIEGSLFFRRLKETAREEPGSLTVAQKDFIQMWHDQADGVYTLRQVFVQTAFDHVRSL”, for which the “soluble fraction (log2)” value stood at 0.1.

“HMNNFTQSALDTIDGIGKRRKKLLLNHFGSVKLIENASIEDIKKIDGISDLVANKIYNFFNKN”: the “soluble fraction (log2)” value is -0.652.

Take “HMNNGAEIGAEIRSLRKARGLTLEDLAAKIGRSVGYISQVERGISPLTIPNLKAIAEVLGVGINWFFRGEA”: the “soluble fraction (log2)” value is -0.552.

Consider “HMNNILNYTIAELMEILKIDDLETENVINSSNNLINKSINENNFPLAEFYEDVKNNLIEFIETFDS”, for which the “soluble fraction (log2)” value is -0.632.

Turning to “HMNNLELSEEEKSVLTIIEKEGLIELDKLKTKLELSNKKWDKTLKFLTKNKLAKVVKNDNGLFVEL”, the “soluble fraction (log2)” value was 0.0812.

Turning to “HMNNLLEDIKARLMAQAEAGGHIDTETELAEHFGVTRYRIRKELDLLSQMGLLRRQPKNGIEVLTV”, the “soluble fraction (log2)” value is -0.106.

For the sequence “HMNNLNDIIEIIRIYAKNYARNNPSWNHSELINRIRDKALGEAEDYNIRLSEEDLALITELSLRGL”, the “soluble fraction (log2)” value was -0.474.

Take “HMNNMVNTLLKLLAEQDVLRGIVRRFTPSSVFVFLQNEEVEVELPLQGRSLAPGQLVELTQEGASVALKRL”: the “soluble fraction (log2)” value is -0.647.

For “HMNNPLLDKVYQLMKQNNITEEEIVRAVAMKGYFPDDMKLGDYPDDFIDGVLIGAWDQIKQFIINNISPFK”, the “soluble fraction (log2)” value was 0.0631.

As to “HMNNSDIDITVGKNSISINNPNRTNIIIYSSNGMLIDSSKNASYKRNLPSGIYIVKSGSSTHKVIV”, the “soluble fraction (log2)” value is -0.148.

For “HMNNTIKFFVSQDDDSTRLDVFLSKKIENLTRSNIKKFINLNNVKINKATINSPSKKVKLYDEIEIKFSS”, the “soluble fraction (log2)” value was -1.72.

“HMNNTIKFSVDSQNSGKRLDIFLTENIKNYTRSFLKKLIENRQVKLNNNFIISPSERVKFKDQININILQ”: the “soluble fraction (log2)” value was -1.17.

As to “HMNNVDIMGRMVYDDQHREVINFGKYKGVLVTEVLKKDPGYFSWIQQGDFPSDMKRIMMAIKLRM”, the “soluble fraction (log2)” value was -2.3.

With “HMNNVDQLIEQYKTLPGGLLPLLHAIKHALGYIPESTVGSIAKGFNLSRAEVHGVISFYHDFNTQP”, the “soluble fraction (log2)” value stood at 0.0707.

In the case of “HMNPAYTDSRMKTFLEELPVMKASLSQKHVTRFLVWQEYIGRHPDGYGKSQFFYHLKQNLVAAKG”, the “soluble fraction (log2)” value was -0.56.

As to “HMNPDTERIREFVAVSLKNRKVATSGEIQNMIVKQFKNFKLKSHGYSNMKSFLSSIDKIQLNSNGKYSLK”, the “soluble fraction (log2)” value was -0.355.

As for “HMNPEDDLLKAIIMKYFSNAQVQVDKNVIEYLLKRVDRDYQNLYNILEKINILSLQRKSKITTHLIRDIM”, the “soluble fraction (log2)” value was -0.432.

For the sequence “HMNPFLELTEREMDVLRLIAIGRNNQEIASELVISEKTVKTHITNIFSKLHFKDRTQAAAYAWQSGIVR”, the “soluble fraction (log2)” value is -0.74.

For the sequence “HMNPHGVAIIDVRKGKASTLRSLATSVRSLGEWDQLKIPIFNLESLTSLVLWHGLDAIVKEPESLQSNLIL”, the “soluble fraction (log2)” value was -0.62.

With “HMNPHIQFWSLLRRQPDYNSAYKDELKAMFVWQWSGEKTESLNEFYKTDPYRYKSMLMDMRNRAL”, the “soluble fraction (log2)” value is -3.15.

Regarding “HMNPIDAHVGARVRLRRMLIGMSQEKLGELLGVTFQQIQKYEKGANRIGASRLYEVSRVLDVPVQYFFDDM”, the “soluble fraction (log2)” value is -3.47.

For the sequence “HMNPLDGTSVHPESYEAAEKLLKKQGFSLEDISGGKLTGLSLTIKDYARLAKELEIGEITLRDIVKELEK”, the “soluble fraction (log2)” value worked out at 0.0193.

“HMNPLHYKAAHWVREGLFDDLKSFVELETRINSIFEEKDRGDVFEIFIEGYRSFSKWRALVLRLA”: the “soluble fraction (log2)” value is -0.28.

In the case of “HMNPNEVQIPDLVNKTEEEAEQILKDLKLKLVVKSEEYDENIEKGKIISQDPTYKENYKIKEHSEISVIIS”, the “soluble fraction (log2)” value was found to be 0.214.

Take “HMNPNPFVNLSPRELEVLNLLFKGYGVLEISNELNIGQTTASTFKSRILKKTSTHSVVELIKLAEQYGFIP”: the “soluble fraction (log2)” value is -0.508.

Consider “HMNPNPYIVLGVDKSMPFGEIKKVYQRKRREFHPDSLVAKGLPDELLQKAQDKFIAIQEAYKSIEKNQV”, for which the “soluble fraction (log2)” value stood at 0.317.

Regarding “HMNPNSIDEKLKLLSNREKEVAILVLKKLSYFEISEQLNITIRTVKAHTKNIYEKFNVSNRLAFLLLFN”, the “soluble fraction (log2)” value was -0.225.

As for “HMNPSAFSEYSFELLQSALLKKKIDENLSNQTIARDAGVSEAFVQKVLTNNVKRPSVKNRVRMISYLGLD”, the “soluble fraction (log2)” value is -1.22.

For “HMNPSFTMGTRIKEYIDAHYLEDLKLADIAEALHINLYYLSHTFKDLTGSSPMQYIIRRRIEE”, the “soluble fraction (log2)” value was -0.778.

For the sequence “HMNPSPYLRRHLSGDWGDLDEDDRRSNDAALASGEARLLSSYQVDPDLKLWIITEWDRSVTTLLLPSE”, the “soluble fraction (log2)” value was -0.0802.

Regarding “HMNPTLPYGFAKRHGVILLEAGEVAVVGLREGADPAALIETRRALGRPLRVEPLDQATFDRRLSQVYA”, the “soluble fraction (log2)” value was -0.148.

On to “HMNPTSLTFRSNVKDGKVYVDGIFKGSSDLDFDLPKGRHSIRIEKDGYVPFAKTINLIKALVIDFNMEKA”, for which the “soluble fraction (log2)” value is -1.83.

As to “HMNPTTQIQYNLPKSEFVSIYIYDLIGNRVKSLINNYQDAGYKSVYWDAMNDLGQPVSAGMYIY”, the “soluble fraction (log2)” value is -0.134.

“HMNQKKFIQADYEDRLFDHLAFEVKDMEKIISMMRREKFTITDEPFRLSPTGSLIAFVEDPDRTLIELIER”: the “soluble fraction (log2)” value is -0.32.

For “HMNQNAMIGAHIRNLRLAKKLTLKQLSDESGLSVGFLSQLERGMSSIAIDTLARLAHILGADLSSFF”, the “soluble fraction (log2)” value was -0.763.

With “HMNQRQLQIKQMLDVAQEVFLKQLKTVFPDVSEMTIRRDLILLEDMGYAVRTHGGAVSINRF”, the “soluble fraction (log2)” value was -2.14.

As for “HMNQRTATVTASQLNVRSGPSTAYSIVHVLRQGETVEVIGESDGWYQIRLKDGRVGWSSGQYLNLN”, the “soluble fraction (log2)” value was determined as 0.0784.

“HMNQSAVMAERMKQTKNRILQTAKEIFLEQGYKRTTIRQIVERSGITSGSIYNIFSSKEEIFSALVDDL”: the “soluble fraction (log2)” value is -2.65.

Regarding “HMNQSYQLWIKDDELGPTPRSVGVLNEHFEVDPAALTNYDAELLRRATFGISLEPRGGSPTGQP”, the “soluble fraction (log2)” value was -0.0224.

As for “HMNQTPQISYSQFIADVRSGQIKDVNIDSDNRTIVGHKFSGEEFTTFSPGDNKLVDELLNYNVEIKTSP”, the “soluble fraction (log2)” value is 0.411.

Take “HMNREEFLSQLERLLYDIPAQEREEALEYYNGYFDDAGKEKEAEVIQELGSPGKVAAIIKADLSG”: the “soluble fraction (log2)” value is -0.0285.

For the origin of these results see the domain aggregation screens of Martell et al. (2025).
